According to US5444041A, “Convertible microemulsion formulations” (Ibah, Inc., priority 1992, dated 1995):

Assays:
[1] = tested on: Spraque-Dawley rats; experiment: Rectal instillation of calcitonin microemulsions, serum Ca+2 in rats; assay type: in vivo, rat
Procedure: A series of experiments was carried out in rats using the w/o microemulsions of this invention to evaluate them as a vehicle for the rectal delivery of the peptide calcitonin, (used in the treatment of hypercalcemia by lowering Ca++ serum levels), whereby the body fluids of the rat would serve to convert the microemulsion to an o/w emulsion and thus release the calcitonin.
Formulations were produced which ranged from 3% to 15% (v/v) aqueous phase and which ranged from liquids to gels at room temperature. The formulations contained, in addition to the aqueous phase, one to three oils and a blend of two emulsifiers. […] Three formulations with different oil blends were chosen for biological evaluation in juvenile, male rat model (Spraque-Dawley rats; 140-170 gm).
Three w/o microemulsion formulations were tested which contained 3% v/v aqueous phase volume, and varying amounts of calcitonin/ml of emulsion. Two, Formulations A and B below, were formulated as liquids; the third microemulsion (Formulation C) was formulated in semi-solid (suppository) form by addition of a high-melting coconut oil to the microemulsion. […]
Serum was prepared from each blood sample and serum Ca^+2 (free ionized calcium) levels were determined using a Beckman calcium clinical assay kit.

[2] = Percent activity of horseradish peroxidase (OPD assay, 492 nm) after storage at 50° C.; assay type: physicochemical
Procedure: In Example 10, the protein horseradish peroxidase (HRP), was stored for given times and temperatures, then assayed in vitro, as shown in this example.
After storage for the specified time at 50° C., the microemulsion was then converted to an o/w emulsion by the addition of water. This was achieved by pipetting 30 μL of the microemulsion containing the horseradish peroxidase enzyme into 970 μL of 0.9 wt. % saline (NaCl) solution.
After conversion, the emulsion was then assayed for activity. This activity was compared with the activity of stock solutions of HRP which had been maintained at 50° C. for the same time and then pipetted into saline (30 μL into 970 μL of saline) in the same manner as the microemulsion above. The stock HRP was first diluted to the same HRP concentration as in the aqueous phase of the converted microemulsion.
The assay was carried out as follows:
1. Set spectrophotometer at 492 nm and 25° C.
2. Into the cuvette, pipet 2.97 mL OPD (O-phenylene diamine) buffer solution (1 tab.→26 mL)
3. Establish blank at 492 nm.
4. Into the cuvette, pipet 25 μL diluted control HRP solution. Mix and record the increase in absorbance at 492 nm for 5 minutes.
5. Same procedure is followed for microemulsion w/HRP solution. OPD=O-phenylene diamine
Percent activity was determined by using the following equation: [formula]

[3] = rat, in vivo
Procedure: A series of experiments was carried out using rats with the w/o microemulsion of this invention to evaluate them as a vehicle for the delivery of the human growth hormone, hGH. The body fluids of the rats served to convert the microemulsion to an o/w emulsion which activated the drug and promoted drug uptake across the mucosal membrane of the rat colon.
The rats were approximately 100 grams and were fasted for 24 hours prior to testing.
The injected group, Group C, received the extracted hGH in a buffer solution at the human equivalent dose of 0.05 mg/kg body weight. The two rectal administration groups, Groups A and B, received ten times the human equivalent dose.
The rats were anaesthetized just prior to dosing. Suppositories (Group A) and the buffer solution (Group B) administered rectally were sealed in the rectum by a plug and liquid cement. Group C animals were injected subcutaneously (SQ). After administering the dosage, serum hGH levels were determined at 30, 60, 120, 180, 240, and 300 minutes. […] The blood was centrifuged and the serum assayed by hGH ELISA (Medix Lab, Foster City, Calif.) for quantitation of the extracted growth hormone.
The AUC (area under the curve) for both routes of administration was determined using the trapezoid rule (M. Gibaldi, Biopharmaceutics and Clinical Pharmacokinetics, Lea and Febiger, Philadelphia, Pa., 1984, pp. 315-16). […]

calcitonin [Saline]
serum calcium response to rectal administration (in words) [1]: no significant response

horseradish peroxidase [Control HRP]
% Activity ([2]; Time 0 hours, converted with saline before assay): 100%
% Activity ([2]; Time 3 hours): 76%
% Activity ([2]; Time 6 hours): 73%
% Activity ([2]; Time 24 hours): 20%
% Activity ([2]; Time 27 hours): 20%
% Activity ([2]; Time 48 hours): 11%

human growth hormone [Group C]
AUC (area under the curve), trapezoid rule [3]: approximately 24.5 ng-hr/ml

human growth hormone [hGH in buffer]
uptake of the drug [3]: no uptake of the drug
